These results are taken from paper PMC6532394.

Read-outs that look alike come from different tables or passages of the source.

Common to all, as to experiment: fluorescence anisotropy
Series [1] deals with T1, MeCP2 (full-length) (human, UniProt P51608 1-486).
The target in series [2] is T1, MeCP2 (full-length). The source holds these as a separate data set.
The target of series [3] is T1, MeCP2 (full-length). The source holds these as a separate data set.
Series [4] has as its target T1, MeCP2 (full-length). The source holds these as a separate data set.
In series [5] the target is T1, MeCP2 (full-length). This is another data set of the same source.
Series [6] deals with T1, MeCP2 (full-length). This is another data set of the same source.
The target in series [7] is T1, MeCP2 (full-length). This is another data set of the same source.

T1 sequence (P51608 whole entry): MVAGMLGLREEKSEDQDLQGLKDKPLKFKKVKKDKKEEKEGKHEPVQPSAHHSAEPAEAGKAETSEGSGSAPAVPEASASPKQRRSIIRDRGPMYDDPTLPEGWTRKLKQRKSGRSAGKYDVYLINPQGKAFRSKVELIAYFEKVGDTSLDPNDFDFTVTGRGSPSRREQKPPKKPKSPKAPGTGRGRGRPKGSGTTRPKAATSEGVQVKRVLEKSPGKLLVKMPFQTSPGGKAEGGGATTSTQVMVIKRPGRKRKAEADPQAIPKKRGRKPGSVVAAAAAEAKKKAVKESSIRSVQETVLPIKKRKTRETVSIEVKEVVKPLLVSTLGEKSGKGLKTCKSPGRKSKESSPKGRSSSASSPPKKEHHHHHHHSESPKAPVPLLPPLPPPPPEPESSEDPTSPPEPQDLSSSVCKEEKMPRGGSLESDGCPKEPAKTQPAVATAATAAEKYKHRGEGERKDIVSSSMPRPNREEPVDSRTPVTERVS

B1: mCpG 20 bp duplex (m/m) (dsDNA)
DNA 1: TCTGGAACGGAATTCTTCTA
DNA 2: TAGAAGAATTCCGTTCCAGA
modifications: 5mC at CpG C of both strands (strand 1 C8, strand 2 C12)
B1: the Kd in series [1] was found to be 80.3 ± 2.5 nM; in series [2] it was 36.5 ± 1.4 nM; in series [3], 28.3 ± 1.1 nM; in series [4], 5.2 ± 0.4 nM.

B2: CpG 20 bp duplex (-/-) (dsDNA)
DNA 1: TCTGGAACGGAATTCTTCTA
DNA 2: TAGAAGAATTCCGTTCCAGA
modifications: none
Turning to B2, the Kd in series [5] stood at 155 ± 3.7 nM; in series [6], 6.3 ± 0.3 nM; in series [7], 56.5 ± 1.8 nM.
